The chains are these.
B1: TCR AE (TCR, V domains shown)
V domain 1: AQSVAQPEDQVNVAEGNPLTVKCTYSVSGNPYLFWYVQYPNRGLQFLLKYITGDNLVKGSYGFEAEFNKSQTSFHLKKPSALVSDSALYFCAVRCPTSGTYKYIFGTGTRLKVLA
V domain 2: DTGVSQDPRHKITKRGQNVTFRCDPISEHNRLYWYRQTLGQGPEFLTYFQNEAQLEKSRLLSDRFSAERPKGSFSTLEIQRTEQGDSAMYLCASSLVSGNEQFFGPGTRLTVLE
B2: TCR AF (TCR, V domains shown)
V domain 1: AQSVAQPEDQVNVAEGNPLTVKCTYSVSGNPYLFWYVQYPNRGLQFLLKYITGDNLVKGSYGFEAEFNKSQTSFHLKKPSALVSDSALYFCAVRSPTSGTYKYIFGTGTRLKVLA
V domain 2: DTGVSQDPRHKITKRGQNVTFRCDPISEHNRLYWYRQTLGQGPEFLTYFQNEAQLEKSRLLSDRFSAERPKGSFSTLEIQRTEQGDSAMYLCASSLVSGNEQFFGPGTRLTVLE
B3: TCR AH (TCR, V domains shown)
V domain 1: AQSVAQPEDQVNVAEGNPLTVKCTYSVSGNPYLFWYVQYPNRGLQFLLKYITGDNLVKGSYGFEAEFNKSQTSFHLKKPSALVSDSALYFCAVRVPTSGTYKYIFGTGTRLKVLA
V domain 2: DTGVSQDPRHKITKRGQNVTFRCDPISEHNRLYWYRQTLGQGPEFLTYFQNEAQLEKSRLLSDRFSAERPKGSFSTLEIQRTEQGDSAMYLCASSLVSGNEQFFGPGTRLTVLE
B4: TCR AG (TCR, V domains shown)
V domain 1: AQSVAQPEDQVNVAEGNPLTVKCTYSVSGNPYLFWYVQYPNRGLQFLLKYITGDNLVKGSYGFEAEFNKSQTSFHLKKPSALVSDSALYFCAVRTPTSGTYKYIFGTGTRLKVLA
V domain 2: DTGVSQDPRHKITKRGQNVTFRCDPISEHNRLYWYRQTLGQGPEFLTYFQNEAQLEKSRLLSDRFSAERPKGSFSTLEIQRTEQGDSAMYLCASSLVSGNEQFFGPGTRLTVLE
B5: TCR AI (TCR, V domains shown)
V domain 1: AQSVAQPEDQVNVAEGNPLTVKCTYSVSGNPYLFWYVQYPNRGLQFLLKYITGDNLVKGSYGFEAEFNKSQTSFHLKKPSALVSDSALYFCAVREPTSGTYKYIFGTGTRLKVLA
V domain 2: DTGVSQDPRHKITKRGQNVTFRCDPISEHNRLYWYRQTLGQGPEFLTYFQNEAQLEKSRLLSDRFSAERPKGSFSTLEIQRTEQGDSAMYLCASSLVNGNEQFFGPGTRLTVLE

This assay addresses HA-1 “H” peptide (…) presented by HLA-A*02:01 on antigen presenting cells (human). Kind of assay: cell-based or functional assay.
Consider B1, for which the “EC50 values for CD69 Expression” value was 2.77 ng/mL.
On to B2, for which the “EC50 values for CD69 Expression” value turned out to be 2.49 ng/mL.
In the case of B3, the “EC50 values for CD69 Expression” value is 3.4 ng/mL.
As for B4, the “EC50 values for CD69 Expression” value is 2.27 ng/mL.
Consider B5, for which the “EC50 values for CD69 Expression” value is 9.2 ng/mL.

Source of the values: patent US20240270813A1 (UNIVERSITY OF PITTSBURGH OF THE COMMONWEALTH SYSTEM OF …, published 2024).
